Measurements as given in patent US20080279850A1.

Experiments:
CD37 (human) [1] = target: T1, CD37 (human) (UniProt P11049)
T1 sequence: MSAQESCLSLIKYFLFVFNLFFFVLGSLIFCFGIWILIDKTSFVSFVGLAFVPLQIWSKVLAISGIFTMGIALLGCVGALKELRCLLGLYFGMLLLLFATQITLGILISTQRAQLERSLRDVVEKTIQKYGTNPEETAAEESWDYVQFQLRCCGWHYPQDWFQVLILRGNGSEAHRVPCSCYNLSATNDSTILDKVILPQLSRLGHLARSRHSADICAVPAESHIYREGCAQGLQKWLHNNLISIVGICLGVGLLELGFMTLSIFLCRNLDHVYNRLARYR

CD37 (human) [2] = target: T1, CD37 (human); remark: listed apart in the source

## TRU-016 [G28-1 scFv VH11S (SSC-P)H WCH2 WCH3] (Fc fusion)
CD37 (human) [1]
  Annexin V Positive, Bjab cells, 20 µg/mL SMIP with goat anti-human IgG crosslinking (Annexin V Positive): 30.6

## TRU-016, protein A purified (unfractionated) (Fc fusion)
CD37 (human) [2]
  Annexin V-PI staining of Ramos cells after 24 hours: 32.8%
